According to paper PMC2629585:
pKd: −log10 of the molar value.

How the values were obtained:
[1] = target: C-reactive protein (CRP), human, purified (Sigma) (human) (UniProt P02741); assay: SPR; BIAcore 2000; POPC on HPA chip, 200 nM CRP injected and captured, then L-rFBG injected at 30 ul/min; infection-inflammation condition: 50 mM MES, 145 mM NaCl, 2 mM calcium, pH 6.5
[2] = target: C-reactive protein (CRP), human, purified (Sigma) (human) (UniProt P02741); assay: SPR; BIAcore 2000; POPC on HPA chip, 200 nM CRP injected and captured, then L-rFBG injected at 30 ul/min; normal condition: 50 mM Tris, 145 mM NaCl, 2.5 mM calcium, pH 7.4

Sequence of C-reactive protein (CRP), human, purified (Sigma) (human) (P02741 19-224): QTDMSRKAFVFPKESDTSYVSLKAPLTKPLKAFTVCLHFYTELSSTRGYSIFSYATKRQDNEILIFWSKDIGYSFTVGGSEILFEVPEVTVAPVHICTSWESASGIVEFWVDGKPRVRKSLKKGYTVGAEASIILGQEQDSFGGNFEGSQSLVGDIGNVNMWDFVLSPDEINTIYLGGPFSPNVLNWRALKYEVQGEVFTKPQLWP

“recombinant FBG domain of L-ficolin (L-rFBG) (domain or fragment)” showed a pKd [1] of 7.90 and a pKd [2] of 5.95.
